# Measured values from IntAct's records for PubMed 31515488.
# B1: Microtubule-associated tumor suppressor candidate 2 (Homo sapiens), Q5JR59-3 (parent)
# chain: MGHCCCKPYNCLQCLDKTNESALVKEKELSIELANIRDEVAFHTAKCEKLQKEKEELERRFEDEVKRLGWQQQAELQELEERLQLQFEAEMARLQEEHGDQLLSIRCQHQEQVEDLTASHDAALLEMENNHTVAITILQDDHDHKVQELMSTHELEKKELEENFEKLRLSLQDQVDTLTFQSQSLRDRARRFEEALRKNTEEQLEIALAPYQHLEEDMKSLKQVLEMKNQQIHEQEKKILELEKLAEKNIILEEKIQVLQQQNEDLKARIDQNTVVTRQLSEENANLQEYVEKETQEKKRLSRTNEELLWKLQTGDPTSPIKLSPTSPVYRGSSSGPSSPARVSTTPR
# partner: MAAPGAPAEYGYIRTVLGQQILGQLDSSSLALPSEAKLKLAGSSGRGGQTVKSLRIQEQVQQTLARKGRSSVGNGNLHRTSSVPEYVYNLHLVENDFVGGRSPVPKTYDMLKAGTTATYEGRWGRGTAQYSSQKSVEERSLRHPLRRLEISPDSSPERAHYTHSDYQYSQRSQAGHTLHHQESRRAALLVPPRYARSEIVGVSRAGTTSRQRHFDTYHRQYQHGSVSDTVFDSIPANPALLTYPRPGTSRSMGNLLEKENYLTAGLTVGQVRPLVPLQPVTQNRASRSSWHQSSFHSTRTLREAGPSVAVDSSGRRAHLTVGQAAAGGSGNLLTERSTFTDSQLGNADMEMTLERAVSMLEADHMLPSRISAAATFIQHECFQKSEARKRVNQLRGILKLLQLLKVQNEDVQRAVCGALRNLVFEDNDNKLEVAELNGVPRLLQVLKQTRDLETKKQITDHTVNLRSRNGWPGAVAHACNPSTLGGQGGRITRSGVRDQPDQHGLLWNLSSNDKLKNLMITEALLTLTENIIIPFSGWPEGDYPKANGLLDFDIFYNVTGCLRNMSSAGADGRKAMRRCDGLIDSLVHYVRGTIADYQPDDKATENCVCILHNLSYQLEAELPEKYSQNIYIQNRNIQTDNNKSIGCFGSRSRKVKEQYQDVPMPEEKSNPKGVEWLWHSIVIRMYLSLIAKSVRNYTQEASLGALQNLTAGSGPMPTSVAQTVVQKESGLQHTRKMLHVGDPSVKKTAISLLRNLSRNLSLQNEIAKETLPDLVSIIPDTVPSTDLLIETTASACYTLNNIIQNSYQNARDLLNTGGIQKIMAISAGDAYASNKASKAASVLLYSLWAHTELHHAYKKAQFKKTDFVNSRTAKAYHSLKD
# B2: "Delta(3,5)-Delta(2,4)-dienoyl-CoA isomerase, mitochondrial" (Homo sapiens), Q13011 (parent)
# chain: MAAGIVASRRLRDLLTRRLTGSNYPGLSISLRLTGSSAQEEASGVALGEAPDHSYESLRVTSAQKHVLHVQLNRPNKRNAMNKVFWREMVECFNKISRDADCRAVVISGAGKMFTAGIDLMDMASDILQPKGDDVARISWYLRDIITRYQETFNVIERCPKPVIAAVHGGCIGGGVDLVTACDIRYCAQDAFFQVKEVDVGLAADVGTLQRLPKVIGNQSLVNELAFTARKMMADEALGSGLVSRVFPDKEVMLDAALALAAEISSKSPVAVQSTKVNLLYSRDHSVAESLNYVASWNMSMLQTQDLVKSVQATTENKELKTVTFSKL
# B3: Isoform Long of Autophagy protein 5 (Homo sapiens), Q9H1Y0-1 (parent)
# chain: MTDDKDVLRDVWFGRIPTCFTLYQDEITEREAEPYYLLLPRVSYLTLVTDKVKKHFQKVMRQEDISEIWFEYEGTPLKWHYPIGLLFDLLASSSALPWNITVHFKSFPEKDLLHCPSKDAIEAHFMSCMKEADALKHKSQVINEMQKKDHKQLWMGLQNDRFDQFWAINRKLMEYPAEENGFRYIPFRIYQTTTERPFIQKLFRPVAADGQLHTLGDLLKEVCPSAIDPEDGEKKNQVMIHGIEPMLETPLQWLSEHLSYPDNFLHISIIPQPTD
# partner: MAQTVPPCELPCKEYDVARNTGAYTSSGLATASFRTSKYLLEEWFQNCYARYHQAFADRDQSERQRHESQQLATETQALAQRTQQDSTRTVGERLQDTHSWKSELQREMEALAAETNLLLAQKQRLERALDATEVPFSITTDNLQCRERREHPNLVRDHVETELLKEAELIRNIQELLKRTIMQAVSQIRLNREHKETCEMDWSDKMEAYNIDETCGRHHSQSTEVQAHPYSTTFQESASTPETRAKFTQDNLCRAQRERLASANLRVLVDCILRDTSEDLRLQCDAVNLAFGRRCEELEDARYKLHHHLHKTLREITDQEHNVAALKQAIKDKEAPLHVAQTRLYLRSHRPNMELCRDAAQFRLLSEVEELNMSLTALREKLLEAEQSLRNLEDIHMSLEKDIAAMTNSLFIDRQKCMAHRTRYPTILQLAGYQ
# B4: Meiotic recombination protein DMC1/LIM15 homolog (Homo sapiens), Q14565 (parent)
# chain: MKEDQVVAEEPGFQDEEESLFQDIDLLQKHGINVADIKKLKSVGICTIKGIQMTTRRALCNVKGLSEAKVDKIKEAANKLIEPGFLTAFEYSEKRKMVFHITTGSQEFDKLLGGGIESMAITEAFGEFRTGKTQLSHTLCVTAQLPGAGGYPGGKIIFIDTENTFRPDRLRDIADRFNVDHDAVLDNVLYARAYTSEHQMELLDYVAAKFHEEAGIFKLLIIDSIMALFRVDFSGRGELAERQQKLAQMLSRLQKISEEYNVAVFVTNQMTADPGATMTFQADPKKPIGGHILAHASTTRISLRKGRGELRIAKIYDSPEMPENEATFAITAGGIGDAKE
# partner: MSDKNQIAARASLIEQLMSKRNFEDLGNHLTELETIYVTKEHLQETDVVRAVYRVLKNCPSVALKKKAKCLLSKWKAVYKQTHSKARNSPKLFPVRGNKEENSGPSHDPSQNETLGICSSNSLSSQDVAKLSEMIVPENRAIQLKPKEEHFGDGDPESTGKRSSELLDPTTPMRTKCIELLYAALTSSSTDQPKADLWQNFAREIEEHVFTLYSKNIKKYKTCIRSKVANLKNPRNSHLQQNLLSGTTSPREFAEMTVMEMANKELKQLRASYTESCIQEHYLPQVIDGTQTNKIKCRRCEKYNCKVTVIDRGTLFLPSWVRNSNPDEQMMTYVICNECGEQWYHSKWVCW
# B5: Zinc finger protein 511 (Homo sapiens), Q8NB15 (parent)
# chain: MQLPPALCARLAAGPGAAEPLPVERDPAAGAAPFRFVARPVRFPREHQFFEDGDVQRHLYLQDVIMQVADVPEKPRVPAFACQVAGCCQVFDALDDYEHHYHTLHGNVCSFCKRAFPSGHLLDAHILEWHDSLFQILSERQDMYQCLVEGCTEKFKTSRDRKDHMVRMHLYPADFRFDKPKKSRSPASAEAPGDSGERSEGEAMEICSEPVAASPAPAGERRIYRHRIPSTICFGQGAARGFKSNKKKTKQC
# partner: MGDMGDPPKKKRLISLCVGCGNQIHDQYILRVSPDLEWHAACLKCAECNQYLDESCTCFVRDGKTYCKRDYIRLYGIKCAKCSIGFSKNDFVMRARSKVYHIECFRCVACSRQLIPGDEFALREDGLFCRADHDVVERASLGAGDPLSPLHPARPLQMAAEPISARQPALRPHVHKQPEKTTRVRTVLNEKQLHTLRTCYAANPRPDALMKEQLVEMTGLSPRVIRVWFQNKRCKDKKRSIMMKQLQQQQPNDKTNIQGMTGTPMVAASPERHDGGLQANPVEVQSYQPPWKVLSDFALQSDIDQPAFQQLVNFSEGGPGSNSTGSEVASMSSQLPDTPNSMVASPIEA
# Variants of: B1
# Settings: with pkp2_human PKP2, Q99959
row,effect of a mutation on the interaction,Variant
1,with no effect,MGHCCCKPYNCLQCLDKTNESALVKEKELSIELANIRDEVAFHTAKCEKLQKEKEELERRFEDEVKRLGWQQQAELQELEERLQLQFEVEMARLQEEHGDQLLSIRCQHQEQVEDLTASHDAALLEMENNHTVAITILQDDHDHKVQELMSTHELEKKELEENFEKLRLSLQDQVDTLTFQSQSLRDRARRFEEALRKNTEEQLEIALAPYQHLEEDMKSLKQVLEMKNQQIHEQEKKILELEKLAEKNIILEEKIQVLQQQNEDLKARIDQNTVVTRQLSEENANLQEYVEKETQEKKRLSRTNEELLWKLQTGDPTSPIKLSPTSPVYRGSSSGPSSPARVSTTPR [A89V]

# Variants of: B2
# Settings: with traf1_human TRAF1, Q13077
# traf1_human TRAF1, Q13077, sequence (Q13077 whole entry): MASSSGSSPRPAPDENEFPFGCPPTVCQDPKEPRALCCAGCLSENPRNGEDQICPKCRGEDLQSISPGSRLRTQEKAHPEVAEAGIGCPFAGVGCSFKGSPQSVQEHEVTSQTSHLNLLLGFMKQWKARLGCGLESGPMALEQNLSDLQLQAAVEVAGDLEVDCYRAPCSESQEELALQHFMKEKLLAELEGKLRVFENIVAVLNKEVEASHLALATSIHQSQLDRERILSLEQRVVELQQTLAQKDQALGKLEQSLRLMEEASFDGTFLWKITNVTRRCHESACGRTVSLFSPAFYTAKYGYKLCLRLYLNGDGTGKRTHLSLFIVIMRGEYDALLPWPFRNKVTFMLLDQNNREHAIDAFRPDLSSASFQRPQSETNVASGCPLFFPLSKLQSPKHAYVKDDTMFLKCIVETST
row,effect of a mutation on the interaction,Variant
1,with no effect,MAAGIVASRRLRDLLTRRLTGSNYPGLSISLRLTGSSAQEAASGVALGEAPDHSYESLRVTSAQKHVLHVQLNRPNKRNAMNKVFWREMVECFNKISRDADCRAVVISGAGKMFTAGIDLMDMASDILQPKGDDVARISWYLRDIITRYQETFNVIERCPKPVIAAVHGGCIGGGVDLVTACDIRYCAQDAFFQVKEVDVGLAADVGTLQRLPKVIGNQSLVNELAFTARKMMADEALGSGLVSRVFPDKEVMLDAALALAAEISSKSPVAVQSTKVNLLYSRDHSVAESLNYVASWNMSMLQTQDLVKSVQATTENKELKTVTFSKL [E41A]

# Variants of: B3
# Settings: with tekt4_human TEKT4, Q8WW24
row,effect of a mutation on the interaction,Variant
1,with no effect,K58M

# Variants of: B4
# Settings: with teanc_human TCEANC
row,effect of a mutation on the interaction,Variant
1,with no effect,MKEDQVVAEEPGFQDEEESLFQDIDLLQKHGINVADIKKLKSVGICTIKGIQMTTRRALCNVKGLSEAKVDKIKEAANKLIEPGFLTAFEYSEKRKMVFHITTGSQEFDKLLGGGIESMAITEAFGEFRTGKTQLSHTLCVTAQLPGAGGYPGGKIIFIDTENTFRPDRLRDIADRFNVDHDAVLDNVLYARAYTSEHQMELLDYVAAKFHEEAGIFKLLIIDSIMALFRVDFSGRGELAERQQKLAQMLSRLQKISEEYNVAVFVTNQMTADPGATMTFQADPKKPTGGHILAHASTTRISLRKGRGELRIAKIYDSPEMPENEATFAITAGGIGDAKE [I288T]

# Variants of: B5
# Settings: with isl1_human ISL1, P61371
row,effect of a mutation on the interaction,Variant
1,with no effect,MQLPPALCARLAAGPGAAEPLPVERDPAAGAAPFRFVARPVRFPREHQFFEDGDVQRHLYLQDVIMQVADVPEKPRVPAFACQVAGCCQVFDALDDYEHHYHTLHGNVCSFCKRAFPSGHLLNAHILEWHDSLFQILSERQDMYQCLVEGCTEKFKTSRDRKDHMVRMHLYPADFRFDKPKKSRSPASAEAPGDSGERSEGEAMEICSEPVAASPAPAGERRIYRHRIPSTICFGQGAARGFKSNKKKTKQC [D123N]
